Test results taken from PMC10397247.
Values belong to the binder of their own block, whether it stands above or below them.

Legend:
Assay in all cases: two-hybrid library CCNG1;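 also: natural log of median RNA to DNA barcode read ratio; higher means stronger binding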
P7mS = biological target: T1, P7mS
T1 chain: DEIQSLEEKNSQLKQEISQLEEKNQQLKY

P5mS = biological target: T2, P5mS
T2 chain: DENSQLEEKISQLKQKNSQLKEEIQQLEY

P4mS = biological target: T3, P4mS
T3 chain: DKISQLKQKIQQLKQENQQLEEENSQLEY

P6mS = biological target: T4, P6mS
T4 chain: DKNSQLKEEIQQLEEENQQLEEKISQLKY

P9mS = biological target: T5, P9mS
T5 chain: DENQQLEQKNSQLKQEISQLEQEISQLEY

P8mS = biological target: T6, P8mS
T6 chain: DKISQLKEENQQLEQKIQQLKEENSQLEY

4H3277-bN = biological target: T7, 4H3277-bN
T7 chain: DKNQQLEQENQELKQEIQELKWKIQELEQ

4H1449-bN = biological target: T8, 4H1449-bN
T8 chain: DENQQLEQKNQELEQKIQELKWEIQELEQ

4H850-bN = biological target: T9, 4H850-bN
T9 chain: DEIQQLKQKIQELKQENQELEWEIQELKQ

4H570-bN = biological target: T10, 4H570-bN
T10 chain: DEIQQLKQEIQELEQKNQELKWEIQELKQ

4H3462-bN = biological target: T11, 4H3462-bN
T11 chain: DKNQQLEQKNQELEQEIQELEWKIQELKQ

4H591-bN = biological target: T12, 4H591-bN
T12 chain: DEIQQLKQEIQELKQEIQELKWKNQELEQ

4H1985-bN = biological target: T13, 4H1985-bN
T13 chain: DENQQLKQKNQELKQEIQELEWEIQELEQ

4H1710-bN = biological target: T14, 4H1710-bN
T14 chain: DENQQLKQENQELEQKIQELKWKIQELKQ

4H3858-bN = biological target: T15, 4H3858-bN
T15 chain: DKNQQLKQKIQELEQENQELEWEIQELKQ

4H3817-bN = biological target: T16, 4H3817-bN
T16 chain: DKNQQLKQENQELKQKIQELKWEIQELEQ

4H3298-bN = biological target: T17, 4H3298-bN
T17 chain: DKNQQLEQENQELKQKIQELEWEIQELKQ

4H72-bN = biological target: T18, 4H72-bN
T18 chain: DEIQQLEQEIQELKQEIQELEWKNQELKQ

4H1899-bN = biological target: T19, 4H1899-bN
T19 chain: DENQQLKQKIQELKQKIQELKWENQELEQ

4H2697-bH = biological target: T20, 4H2697-bH
T20 chain: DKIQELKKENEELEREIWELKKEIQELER

4H3628-bN = biological target: T21, 4H3628-bN
T21 chain: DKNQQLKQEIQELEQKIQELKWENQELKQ

4H3175-bN = biological target: T22, 4H3175-bN
T22 chain: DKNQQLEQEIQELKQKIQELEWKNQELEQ

4H626-bN = biological target: T23, 4H626-bN
T23 chain: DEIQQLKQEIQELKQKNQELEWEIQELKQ

4H3926-bN = biological target: T24, 4H3926-bN
T24 chain: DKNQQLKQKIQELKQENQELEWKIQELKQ

4H3497-bN = biological target: T25, 4H3497-bN
T25 chain: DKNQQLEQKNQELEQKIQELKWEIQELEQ

4H906-bN = biological target: T26, 4H906-bN
T26 chain: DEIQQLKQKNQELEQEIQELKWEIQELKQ

4H338-bH = biological target: T27, 4H338-bH
T27 chain: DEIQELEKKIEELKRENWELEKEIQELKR

4H3613-bN = biological target: T28, 4H3613-bN
T28 chain: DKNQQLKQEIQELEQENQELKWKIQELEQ

4H3162-bN = biological target: T29, 4H3162-bN
T29 chain: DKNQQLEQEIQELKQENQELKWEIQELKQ

4H1544-bN = biological target: T30, 4H1544-bN
T30 chain: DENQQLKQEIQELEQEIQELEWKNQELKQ

4H1373-bN = biological target: T31, 4H1373-bN
T31 chain: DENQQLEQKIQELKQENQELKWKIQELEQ

4H3974-bN = biological target: T32, 4H3974-bN
T32 chain: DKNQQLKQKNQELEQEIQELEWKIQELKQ

interaction score (P7mS): -1.14
interaction score (P5mS): -1.04
interaction score (P4mS): -1.66
interaction score (P6mS): -1.48
interaction score (P9mS): -1.28
interaction score (P8mS): -1.85
Binder: DKISQLKQKIQQLKQENQQLEEENSQLEY [P4mS]

interaction score (4H3277-bN): -1.18
interaction score (4H1449-bN): -0.869
interaction score (4H850-bN): -0.952
interaction score (4H570-bN): -1.29
interaction score (4H3462-bN): -0.946
interaction score (4H591-bN): -0.619
interaction score (4H1985-bN): -1.63
interaction score (4H1710-bN): -0.292
interaction score (4H3858-bN): 0.337
interaction score (4H3817-bN): -0.749
interaction score (4H3298-bN): -0.763
interaction score (4H72-bN): -2.48
interaction score (4H1899-bN): -1.32
interaction score (4H2697-bH): -2.86
interaction score (4H3628-bN): -0.846
interaction score (4H3175-bN): -0.941
interaction score (4H626-bN): -0.375
interaction score (4H3926-bN): 1.21
interaction score (4H3497-bN): -1.41
interaction score (4H906-bN): -1.37
interaction score (4H338-bH): -0.758
interaction score (4H3613-bN): 1.13
interaction score (4H3162-bN): -0.675
interaction score (4H1544-bN): -0.522
interaction score (4H1373-bN): -0.169
interaction score (4H3974-bN): -0.592
Binder: DENQQLEQKIQELKQENQELKWKIQELEQ [4H1373-bN]
